Test results as given in patent US20030148420.

Target: T1, Aspergillus ochraceus 11 alpha hydroxylase
T1 chain: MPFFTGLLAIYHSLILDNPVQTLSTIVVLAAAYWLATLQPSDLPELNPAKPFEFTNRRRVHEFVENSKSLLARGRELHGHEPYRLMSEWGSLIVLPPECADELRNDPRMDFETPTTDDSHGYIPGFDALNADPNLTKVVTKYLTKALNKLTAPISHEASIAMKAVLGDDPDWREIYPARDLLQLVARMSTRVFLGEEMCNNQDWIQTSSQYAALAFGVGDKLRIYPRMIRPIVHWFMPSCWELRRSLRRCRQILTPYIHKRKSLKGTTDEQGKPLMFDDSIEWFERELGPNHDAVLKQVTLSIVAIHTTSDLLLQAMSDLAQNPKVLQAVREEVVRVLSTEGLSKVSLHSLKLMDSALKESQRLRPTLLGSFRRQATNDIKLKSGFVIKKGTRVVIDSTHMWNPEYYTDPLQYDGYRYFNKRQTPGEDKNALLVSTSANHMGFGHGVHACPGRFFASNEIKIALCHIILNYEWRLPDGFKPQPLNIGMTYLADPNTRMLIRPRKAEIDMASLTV

B1: human oxidoreductase (protein)
chain: MGDSHVDTSSTVSEAVAEEVSLFSMTDMILFSLIVGLLTYWFLFRKKKEEVPEFTKIQTLTSSVRESSFVEKMKKTGRNIIVFYGSQTGTAEEFANRLSKDAHRYGMRGMSADPEEYDLADLSSLPEIDNALVVFCMATYGEGDPTDNAQDFYDWLQETDVDLSGVKFAVFGLGNKTYEHFNAMGKYVDKRLEQLGAQRIFELGLGDDDGNLEEDFITWREQFWPAVCEHFGVEATGEESSIRQYELVVHTDIDAAKVYMGEMGRLKSYENQKPPFDAKNPFLAAVTTNRKLNQGTERHLMHLELDISDSKIRYESGDHVAVYPANDSALVNQLGKILGADLDVVMSLNNLDEESNKKHPFPCPTSYRTALTYYLDITNPPRTNVLYELAQYASEPSEQELLRKMASSSGEGKELYLSWVVEARRHILAILQDCPSLRPPIDHLCELLPRLQARYYSIASSSKVHPNSVHICAVVVEYETKAGRINKGVATNWLRAKEPAGENGGRALVPMFVRKSQFRLPFKATTPVIMVGPGTGVAPFIGFIQERAWLRQQGKEVGETLLYYGCRRSDEDYLYREELAQFHRDGALTQLNVAFSREQSHKVYVQHLLKQDREHLWKLIEGGAHIYVCGDARNMARDVQNTFYDIVAELGAMEHAQAVDYIKKLMTKGRYSLDVWS
B1 was tested, and the “conversion of 4-androstene-3,17-dione (AD) to 11 alpha-hydroxy-AD, by HPLC” value was “successfully catalyzed the conversion of the steroid substrate 4-androstene-3,17-dione (AD) to 11 alpha-hydroxy-AD”.
